What is called Kd is the concentration at which binding is half-saturated.

A value given as a limit tells only on which side of the number the result lay.

The text below walks through data of paper PMC10697138.

One assay has as its target IL-4Rα (Homo sapiens) (UniProt P24394). Conditions: cited from earlier work.
Assay [1] addresses hIL-4Rα–hIL-13Rα1 complex (human type II IL-4 receptor) (human) (UniProt P78552).
UniProt P78552, sequence (P78552 22-343, chain 1 of 2): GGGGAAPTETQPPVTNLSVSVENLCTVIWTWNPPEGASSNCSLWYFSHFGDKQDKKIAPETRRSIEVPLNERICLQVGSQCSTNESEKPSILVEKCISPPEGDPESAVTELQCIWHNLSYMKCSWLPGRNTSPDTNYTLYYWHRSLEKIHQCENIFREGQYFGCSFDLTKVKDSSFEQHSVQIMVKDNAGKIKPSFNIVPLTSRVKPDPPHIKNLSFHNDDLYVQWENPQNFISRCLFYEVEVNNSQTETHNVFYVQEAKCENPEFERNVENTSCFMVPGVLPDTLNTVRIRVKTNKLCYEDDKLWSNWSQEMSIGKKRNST
UniProt P78552, sequence (P24394 26-232, chain 2 of 2, further chain): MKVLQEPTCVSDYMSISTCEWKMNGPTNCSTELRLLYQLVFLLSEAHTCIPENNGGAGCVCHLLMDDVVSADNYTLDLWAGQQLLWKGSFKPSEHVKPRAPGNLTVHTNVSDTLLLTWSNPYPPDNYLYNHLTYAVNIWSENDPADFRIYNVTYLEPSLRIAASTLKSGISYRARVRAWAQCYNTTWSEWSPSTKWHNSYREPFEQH

UniProt P24394, sequence (P24394 26-232): as the sequence (P24394 26-232, chain 2 of 2, further chain) above

Take IL-4 (from UniProt P05112): the dissociation constant Kd with IL-4Rα (Homo sapiens) was under 1 nM. Substance “human interleukin-4 (hIL-4) (from UniProt P05112 25-153) (ligand)” gave a Kd in assay [1] of 101 nM.
